The values that follow come from patent US20030203415A1 (published 2003).

For experiment [1], the target named is T1, H6NA3 (UniProt P06731 35-144; P06731 499-590, limits assumed).
T1 construct: domain: N domain;domain: A3 domain; recombinant truncated target
T1 sequence: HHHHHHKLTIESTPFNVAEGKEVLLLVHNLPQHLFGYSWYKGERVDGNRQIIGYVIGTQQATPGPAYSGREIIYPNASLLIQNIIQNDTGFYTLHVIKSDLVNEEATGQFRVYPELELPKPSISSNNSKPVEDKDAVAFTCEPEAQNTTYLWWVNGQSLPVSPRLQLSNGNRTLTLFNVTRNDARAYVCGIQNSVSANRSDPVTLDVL
Description: fluorescence anisotropy, direct binding. The method, then: (§1) Dissociation constants were determined using fluorescence anisotropy, through direct binding measurements to either NA-3 or CEA in PBS with 0.01% TWEEN 20. In direct binding assays, the concentration of the fluorescein-labeled peptide is held constant and the concentration of NA3 is varied. In the competition experiment, the concentration of the fluorescein-labeled peptide and the NA3 target are held constant and the concentration of competitor peptide (from Isolate 12-H12) is varied. The change in anisotropy is fit to the appropriate equation via nonlinear regression to obtain the apparent Kd. […] Replicate analyses were run for certain binders and are reported to confirm accuracy and precision of measurements. KD standard error values are calculated from the nonlinear regression (SIGMAPLOT, SPSS Science, Chicago, Ill.).
(In general: In fluorescence polarisation assays a small probe gives low polarisation when free and higher when bound to something large.)

For experiment [2], the target named is T2, carcinoembryonic antigen (CEA) (UniProt P06731 35-685, limits assumed).
T2 sequence (looked up): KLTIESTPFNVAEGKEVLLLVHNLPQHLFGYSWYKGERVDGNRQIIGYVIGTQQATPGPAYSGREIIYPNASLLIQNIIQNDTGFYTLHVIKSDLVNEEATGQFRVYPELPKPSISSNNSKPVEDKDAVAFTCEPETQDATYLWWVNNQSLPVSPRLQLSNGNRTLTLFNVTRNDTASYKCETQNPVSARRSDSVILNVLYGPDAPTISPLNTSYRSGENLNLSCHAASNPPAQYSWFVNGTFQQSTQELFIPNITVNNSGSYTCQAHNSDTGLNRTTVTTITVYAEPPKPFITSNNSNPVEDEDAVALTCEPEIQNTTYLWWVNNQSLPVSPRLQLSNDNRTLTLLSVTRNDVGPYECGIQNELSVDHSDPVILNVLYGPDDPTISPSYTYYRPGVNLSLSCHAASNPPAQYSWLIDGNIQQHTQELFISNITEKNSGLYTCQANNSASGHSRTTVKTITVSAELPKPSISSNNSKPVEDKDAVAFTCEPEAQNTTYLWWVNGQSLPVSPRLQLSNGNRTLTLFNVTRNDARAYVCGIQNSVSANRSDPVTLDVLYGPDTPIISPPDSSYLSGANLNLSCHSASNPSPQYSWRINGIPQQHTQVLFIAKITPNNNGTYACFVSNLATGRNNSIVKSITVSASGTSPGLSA
Description: fluorescence anisotropy, direct binding. The method, then: as §1

For experiment [3], the target named is T1, H6NA3. Kind of experiment: fluorescence anisotropy, competition with peptide from Isolate 12-H12. The method, then: as §1
Experiment [4] has as its target T1, H6NA3. Description: fluorescence anisotropy, competition with peptide from Isolate 12-H12 (replicate). The method, then:
as §1

The target of experiment [5] is T3, human serum albumin (HSA) (human, UniProt P02768 25-609).
T3 construct: control target
T3 sequence (P02768 25-609 limits assumed): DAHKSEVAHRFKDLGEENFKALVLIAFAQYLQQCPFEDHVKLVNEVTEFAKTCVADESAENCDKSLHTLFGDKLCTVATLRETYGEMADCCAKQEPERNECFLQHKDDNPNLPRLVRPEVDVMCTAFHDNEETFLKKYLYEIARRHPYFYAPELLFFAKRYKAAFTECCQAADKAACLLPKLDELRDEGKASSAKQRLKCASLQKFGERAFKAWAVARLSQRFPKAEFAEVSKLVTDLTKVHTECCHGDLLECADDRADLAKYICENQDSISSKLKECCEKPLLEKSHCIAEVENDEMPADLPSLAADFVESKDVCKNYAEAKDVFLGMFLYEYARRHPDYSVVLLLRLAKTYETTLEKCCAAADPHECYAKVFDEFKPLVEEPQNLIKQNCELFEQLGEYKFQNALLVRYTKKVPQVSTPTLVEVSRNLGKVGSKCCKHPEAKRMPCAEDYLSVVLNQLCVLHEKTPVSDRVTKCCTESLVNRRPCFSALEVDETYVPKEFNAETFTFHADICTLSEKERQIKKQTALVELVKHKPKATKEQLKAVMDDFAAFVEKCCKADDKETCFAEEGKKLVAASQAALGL
Description: phage ELISA on immobilized HSA. (In general: ELISA stands for enzyme-linked immunosorbent assay.)

Experiment [6] addresses T1, H6NA3. Kind of experiment: fluorescence anisotropy, direct binding. The method, then:
(§2) Dissociation constants were determined using fluorescence anisotropy, through direct binding measurements and competition experiments. In direct binding assays, the concentration of the fluorescein-labeled peptide is held constant and the concentration of H6NA3 is varied. In the competition experiment, the concentration of the fluorescein-labeled peptide and the H6NA3 target are held constant and the concentration of a competitor (cT84.66, unlabeled) is varied. The change in anisotropy is fit to the appropriate equation via nonlinear regression to obtain the apparent Kd.
The source holds these as a separate data set.

In experiment [7] the target is T1, H6NA3. Description: fluorescence anisotropy, direct binding. The source holds these as a separate data set.
In experiment [8] the target is T1, H6NA3. Kind of experiment: fluorescence anisotropy, competition with unlabeled cT84.66. The method, then:
as §2

Experiment [9] addresses T1, H6NA3. Description: fluorescence anisotropy, direct binding. This is another data set of the same source.
Experiment [10] addresses T1, H6NA3. Description: fluorescence anisotropy, direct binding. The method, then:
as §2
Dissociation constants were determined using fluorescence anisotropy, through direct binding measurements (see Example 6).
The source holds these as a separate data set.

Experiment [11] has as its target T1, H6NA3. Kind of experiment: fluorescence anisotropy, direct binding (replicate). The method, then: as §1

Values joined by “and” are separate entries in the source; they are usually repeats but may differ in a detail not shown here. Identical values can stand only once. Ends that are not written are not given here. fluorescein = fluorescein label attached through NHS-fluorescein to the ε-amino side group of the C-terminal lysine

B1: 315A-17-G08 synthetic peptide (peptide)
peptide: DWVCEFIKSQWFCNVLAPGGEGGGSK(fluorescein)-NH2
modifications: not fully specified (bridges); cysteine pairing not given here; also: fluorescein on C-terminal Lys ε-amino in labelled aliquots
notes: synthetic
A word on the Kd: it is a measure of binding affinity in units of concentration. Take B1: the Kd came to 270 nM with H6NA3 [1], 1600 nM in experiment [2], 160 nM with H6NA3 [3] and 160 nM with H6NA3 [4].
As to NWVCNLFKNQWFCNSY (also called TN10/9 Isolate G08) [FX-G08], the binding result in experiment [5] is “no binding”.

B2: P-G08 (peptide)
peptide: SNWVCNLFKNQWFCNSYAPGGEGGGSK(fluorescein)-NH2
modifications: not fully specified (bridges); printed as SNWVCNLFKNQWFCNSYAPGGEGGGSK-CONH2; cysteine pairing not given here; also: fluorescein on C-terminal Lys ε-amino in labelled aliquots
notes: synthetic 27-mer; also called Isolate G08 peptide
For the molecule B2, the affinity in the experiment with H6NA3 [6], expressed as Kd, was 1900 nM.
Regarding NWRCKLFPRYPYCSSW (also called TN10/9 Isolate G01) [G01], in [5], the binding result is “no binding”.

B3: 315A-17-B01 synthetic peptide (peptide)
peptide: DWVCEWLKMQWACNILAPGGEGGGSK(fluorescein)-NH2
modifications: not fully specified (bridges); cysteine pairing not given here; also: fluorescein on C-terminal Lys ε-amino in labelled aliquots
notes: synthetic
Take B3: the Kd was determined as 950 nM with H6NA3 [1], 900 nM with H6NA3 [3] and 1200 nM with H6NA3 [4].

B4: 304A-14-A12 synthetic peptide (peptide, part only; not given: C-terminal lysine extension, part only)
peptide, part: DWVCNLFKNQWFCDTL
modifications: not fully specified (C-terminus, bridges); cysteine pairing not given here; also: fluorescein on ε-amino of C-terminal lysine, no C-terminal K in given chain
Take B4: the Kd with H6NA3 [7] stood at 640 nM.
Turning to NWFCEMIGRQWGCVPS [TN10/9-F11], the binding result in [5] is on record as “no binding”.
As to RYCEFFPWSLHCGRP (also called TN10/9 Isolate B10) [B10], the binding result in experiment [5] was “no binding”.

B5: Hybrid H12/A12 (peptide, part only; not given: C-terminal lysine extension, part only)
peptide, part: DWVCEYFKNQWFCDTL
modifications: not fully specified (C-terminus, bridges); cysteine pairing not given here; also: fluorescein on ε-amino of C-terminal lysine, no C-terminal K in given chain
For B5, the Kd with H6NA3 [7] was found to be 2800 nM.

B6: 315A-18-E01 synthetic peptide (peptide)
peptide: DWVCEIVKNQWICNPLAPGGEGGGSK(fluorescein)-NH2
modifications: not fully specified (bridges); cysteine pairing not given here; also: fluorescein on C-terminal Lys ε-amino in labelled aliquots
notes: synthetic
Regarding B6, the Kd with H6NA3 [1] was 870 nM; in the experiment with H6NA3 [3], 230 nM; in the experiment with H6NA3 [4], 490 nM and 170 nM.

B7: P-B09 (peptide)
peptide: SDWVCELTTGGYVCQPLAPGGEGGGSK(fluorescein)-NH2
modifications: not fully specified (bridges); printed as SDWVCELTTGGYVCQPLAPGGEGGGSK-CONH2; cysteine pairing not given here; also: fluorescein on C-terminal Lys ε-amino in labelled aliquots
notes: synthetic 27-mer
Turning to B7, the dissociation constant Kd with H6NA3 [6] amounted to 6000 nM; with H6NA3 [8], 1000 nM.

B8: 315A-17-B12 synthetic peptide (peptide)
peptide: DWVCEWLKPQWYCNSLAPGGEGGGSK(fluorescein)-NH2
modifications: not fully specified (bridges); cysteine pairing not given here; also: fluorescein on C-terminal Lys ε-amino in labelled aliquots
notes: synthetic
B8: the Kd in the experiment with H6NA3 [1] stood at 1800 nM; with H6NA3 [3], 650 nM. In addition, in experiment [2], the binding result was “no binding”.
Take DWVCENKKDQWTCNLL (not fully specified (bridges); cysteine pairing not given here, also called TN10/9 Isolate A07) [AB-A07]: in experiment [5], the binding result is “no binding”.
Turning to DWVCNFDQGLAHCFPS (not fully specified (bridges); cysteine pairing not given here) [TN10/9-D04], the binding result in experiment [5] was “no binding”.

B9: 304A-12-H12 synthetic peptide (peptide)
peptide: DWVCEYFKNQWFCNVLAPGGEGGGSK-NH2
modifications: not fully specified (residue 26, bridges); cysteine pairing not given here; also: fluorescein only on labelled aliquots
notes: synthetic; also called DX306
Take B9: the Kd with H6NA3 [1] is 300 nM; in [2], 3700 nM; with H6NA3 [3] it was 340 nM; with H6NA3 [10], 240 nM; with H6NA3 [4] it was 240 nM; with H6NA3 [11], 220 nM. Moreover, the “fold increase in affinity compared to the Isolate G08 peptide” value with H6NA3 [9] is 8 fold.

B10: P-A07 (peptide)
peptide: SDWVCENKKDQWTCNLLAPGGEGGGSK(fluorescein)-NH2
modifications: not fully specified (bridges); printed as SDWVCENKKDQWTCNLLAPGGEGGGSK-CONH2; cysteine pairing not given here; also: fluorescein on C-terminal Lys ε-amino in labelled aliquots
notes: synthetic 27-mer
With B10, the Kd stood at 5900 nM in the experiment with H6NA3 [6] and 3600 nM with H6NA3 [8].
For the molecule NWDCMFGAEGWACSPW (not fully specified (bridges); cysteine pairing not given here) [TN10/9-E01], in experiment [5], the binding result is “no binding”.

B11: 315A-18-E02 synthetic peptide (peptide)
peptide: DWVCEFFKDQWFCNILAPGGEGGGSK(fluorescein)-NH2
modifications: not fully specified (bridges); cysteine pairing not given here; also: fluorescein on C-terminal Lys ε-amino in labelled aliquots
notes: synthetic
In the case of B11, the Kd with H6NA3 [1] is 380 nM; in [2] it was 2600 nM; with H6NA3 [3] it was 310 nM; in the experiment with H6NA3 [4] it was 290 nM and 220 nM and 140 nM.
